Results published in publication PMC7473305 (Frontiers in Immunology, 2020).

Legend:
[1] = molecular target: human IL-17A/F heterodimer (Homo sapiens, UniProt Q16552;Q96PD4); experiment: cell-based or functional assay
[2] = molecular target: T1, human IL-17F (R&D Systems) (Homo sapiens, UniProt Q96PD4); experiment: cell-based or functional assay
[3] = molecular target: T2, human IL-17A (generated at UCB) (Homo sapiens, UniProt Q16552); experiment: cell-based or functional assay
[4] = molecular target: T3, cynomolgus macaque IL-17A (Macaca fascicularis, UniProt A0A2K5TTB0); experiment: SPR; Biacore T200, CM5 chip; IgG1 captured by F(ab')2 fragment-specific or Fcγ-specific goat anti-human IgG F(ab')2; cytokine titrated over it (10 nM IL-17F or 5 nM IL-17A and IL-17A/F downwards); HBS-EP pH 7.4, 25°C; conditions: both partners purified
T3 construct: interleukin-17A, cynomolgus macaque; source: generated at UCB

[5] = molecular target: T4, cynomolgus macaque IL-17F (Macaca fascicularis, UniProt G7P4V0); experiment: as above; conditions: both partners purified
T4 construct: interleukin-17F, cynomolgus macaque; source: generated at UCB

[6] = molecular target: T1, human IL-17F (R&D Systems); experiment: SPR; Biacore T200, CM5 chip; Fab captured on immobilised anti-human F(ab')2; cytokine titrated over it; HBS-EP pH 7.4, 25°C; conditions: both partners purified
[7] = molecular target: T2, human IL-17A (generated at UCB); experiment: as above; conditions: both partners purified

T2 sequence (Q16552 24-155): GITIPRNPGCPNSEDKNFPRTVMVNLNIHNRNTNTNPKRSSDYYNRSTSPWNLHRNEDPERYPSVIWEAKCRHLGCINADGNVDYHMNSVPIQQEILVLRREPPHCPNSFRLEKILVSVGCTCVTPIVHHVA
T1 sequence (Q96PD4 31-163): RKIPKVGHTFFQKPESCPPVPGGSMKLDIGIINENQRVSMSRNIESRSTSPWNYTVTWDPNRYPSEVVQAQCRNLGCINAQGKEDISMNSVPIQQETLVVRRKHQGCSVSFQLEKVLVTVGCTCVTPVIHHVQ
human IL-17A/F heterodimer, sequence (Q16552 24-155, chain 1 of 2): as the sequence (Q16552 24-155) above
human IL-17A/F heterodimer, sequence (Q96PD4 31-163, chain 2 of 2): as the sequence (Q96PD4 31-163) above

| Binder | IC50 of neutralization of IL-17A/F (30 ng/mL, with TNF 1 ng/mL): IL-6 production by NHDFs [1] [µg/mL] | IC50 of neutralization of IL-17F (30 ng/mL, with TNF 1 ng/mL): IL-6 production by NHDFs [2] [µg/mL] | IC50 of neutralization of IL-17A (1 ng/mL, with TNF 1 ng/mL): IL-6 production by NHDFs [3] [µg/mL] | Kd [4] [nM] | Kd [5] [nM] | Kd [6] [nM] | Kd [7] [nM] |
| --- | --- | --- | --- | --- | --- | --- | --- |
| 496.g3 IgG1 (bimekizumab) (antibody, V domains shown) VH: EVQLVESGGGLVQPGGSLRLSCAASGFTFSDYNMAWVRQAPGKGLEWVATITYEGRNTYYRDSVKGRFTISRDNAKNSLYLQMNSLRAEDTAVYYCASPPQYYEGSIYRLWFAHWGQGTLVTVSS VL: AIQLTQSPSSLSASVGDRVTITCRADESVRTLMHWYQQKPGKAPKLLIYLVSNSEIGVPDRFSGSGSGTDFRLTISSLQPEDFATYYCQQTWSDPWTFGQGTKVEIK | 0.0489 | 0.0321 | 0.0004 | 0.0123 | 0.345 |  |  |
| 496.g1 Fab (Fab, V domains shown) VH: EVQLVESGGGLVQPGGSLRLSCAASGFTFSDYNMAWVRQAPGKGLEWVATITYEGRNTYYRDSVKGRFTISRDNAKNSLYLQMNSLRAEDTAVYYCASPPQYYEGSIYRLWFAHWGQGTLVTVSS VL: AIQLTQSPSSLSASVGDRVTITCRADESVTTLMHWYQQKPGKAPKLLIYLVSNRESGVPSRFSGSGSGTDFTLTISSLQPEDFATYYCQQTWSDPWTFGQGTKVEIK |  |  |  |  |  | 1.51 | 0.0292 |
| 496.g3 Fab (Fab, V domains shown) VH: EVQLVESGGGLVQPGGSLRLSCAASGFTFSDYNMAWVRQAPGKGLEWVATITYEGRNTYYRDSVKGRFTISRDNAKNSLYLQMNSLRAEDTAVYYCASPPQYYEGSIYRLWFAHWGQGTLVTVSS VL: AIQLTQSPSSLSASVGDRVTITCRADESVRTLMHWYQQKPGKAPKLLIYLVSNSEIGVPDRFSGSGSGTDFRLTISSLQPEDFATYYCQQTWSDPWTFGQGTKVEIK |  |  |  |  |  |  | 0.0072 |
